Results from paper PMC3402150, “An endogenous factor enhances ferulic acid decarboxylation catalyzed by phenolic acid decarboxylase from Candida guilliermondii” (AMB Express, 2012).

Tested on: COc1cc(/C=C/C(=O)O)ccc1O
Experiment: purified protein
Details: control without ultrafiltrate activator, general assay 0.1 M sodium phosphate pH 6.0, 25°C

“CgPAD (phenolic acid decarboxylase) (Meyerozyma guilliermondii)” showed a Km of 5.31 mM and a kcat of 89.7 s⁻¹.
